Source: patent publication US20080311122A1 (AstraZeneca / MedImmune, published 2008)
Each block holds one binder with its values, some of them ahead of it.

Tests used:
[1] = target: T1, HMGB1 in sera of septic peritonitis mice (mouse, UniProt P63158 1-215); assay: sandwich ELISA: antibody (10 ug/ml) captured on anti-human Fc, sample added, mouse anti-HMGB1 and anti-mouse-HRP, OD 450
T1 construct: also called HMGB1 from sepsis sera (ELISA); peritonitis sera
T1 sequence (looked up): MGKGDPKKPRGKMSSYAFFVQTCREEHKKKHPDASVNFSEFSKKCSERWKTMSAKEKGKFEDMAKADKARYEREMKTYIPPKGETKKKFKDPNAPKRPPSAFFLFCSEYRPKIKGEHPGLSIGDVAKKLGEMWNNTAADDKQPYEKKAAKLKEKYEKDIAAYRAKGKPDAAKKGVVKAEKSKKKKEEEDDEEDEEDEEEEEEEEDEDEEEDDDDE
Experimental: (§1) HMGB1 Detection from Biological Samples: For detection of the HMGB1 from AA joint homogenates and peritonitis sera, sandwich ELISA was performed. Goat anti-human Fc (Pierce) 14 μg/ml in PBS was coated on Immunlon IV microtiter plate over night at 4° C. After washing and blocking with 5% milk 1 hr at room temperature, G4 or S6 in blocking buffer (10 μg/ml) were added to each well of the blocked plate. The plate was washed 1 hour later and 25 μl of AIA homogenates containing 0.8 μg/ml of HMGB1 or peritonitis sera containing 7 μg/ml of HMGB1 in 0.5 M NaCl/blocking buffer were added to the wells at two fold serial dilutions. The unbound materials were removed by washing one hr after incubation. The bound HMGB1 was detected by a mouse anti-HMGB1 antibody at 2 μg/ml followed by an anti-mouse antibody conjugated with horseradish peroxidase. Mouse peritonitis sera was obtained by heart puncture 7 days after infection with heat killed staphylococcus aureus. Joint lysate was prepared from the whole paw of AIA rats as described in Example 6 below. Human sepsis sera were purchased from a commercial source.

[2] = target: T2, activated HMG1 prepared from LPS stimulated THP-1 cells (human, UniProt P09429 1-215); assay: cell-based or functional assay
T2 sequence (looked up): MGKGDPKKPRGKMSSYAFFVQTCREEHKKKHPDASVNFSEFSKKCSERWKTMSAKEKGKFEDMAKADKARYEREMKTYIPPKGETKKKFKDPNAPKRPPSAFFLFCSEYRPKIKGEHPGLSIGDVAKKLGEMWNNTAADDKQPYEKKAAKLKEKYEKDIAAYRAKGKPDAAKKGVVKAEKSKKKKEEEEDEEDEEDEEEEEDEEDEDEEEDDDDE

[3] = target: T3, HMGB1 in joint lysates of adjuvant induced arthritis (AIA) rats (rat, UniProt P63159 2-215); assay: immunoprecipitation from AIA rat joint lysate, Western blot probed with biotinylated S16 (the method names G4, S6 and isotype control, the legend names S16 for lane 2)
T3 construct: also called HMGB1 from arthritis joints; AA joint lysates
T3 sequence (looked up): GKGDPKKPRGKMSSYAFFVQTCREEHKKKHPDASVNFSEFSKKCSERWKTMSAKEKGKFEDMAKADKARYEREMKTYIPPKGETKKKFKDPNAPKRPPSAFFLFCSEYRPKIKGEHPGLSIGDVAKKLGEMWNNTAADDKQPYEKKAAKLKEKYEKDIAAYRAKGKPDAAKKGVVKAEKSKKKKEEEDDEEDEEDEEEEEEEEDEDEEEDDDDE
Experimental: Immunoprecipitation and Western Blot: Anti-HMGB1 mAbs (G4 and S6) and isotype control were first biotinylated using EZ-Link Sulfo-NHS-LC-Biotin as instructed by the manufacturer (Pierce). After labeling, the mAb was tested for binding to HMGB1 by ELISA with unlabeled mAbs as controls. The biological samples, joint lysate (30 μl), was mixed with […] biotinylated G4, S6 or isotype control overnight at 4° C. in 300 μl IP buffer [containing 1×PBS, pH 7.2 (Invitrogen), 0.1% Tween 20, 0.5 M sodium chloride, 10 mM sodium butyrate, and a 1:100 dilution of Phosphatase Inhibitor Cocktail I (Sigma)]. For sepsis sera, Tween 20, sodium chloride, sodium butyrate, and Phosphatase Inhibitor Cocktail I were added to 500 μl sera with the same final concentration as IP buffer. Streptavidin Sepharose beads (GE Healthcare) were blocked in 4% BSA-PBS overnight at 4° C., then washed three times with PBS and resuspended in 1×PBS resulting in 50% slurry. The bead slurry (60 μl) was then added to the overnight mAb/sample mixture and mixed for 20 minutes at room temperature. The beads were washed once with PBS, five times with IP Buffer and then washed twice with PBS by spinning at 1000 g for two min. […] The bands were detected by LumiGlo substrate solution (KPL) after washing.

[4] = target: T3, HMGB1 in joint lysates of adjuvant …; assay: sandwich ELISA and immunoprecipitation with Western blot
Experimental: as §1
Immunoprecipitation and Western Blot: Anti-HMGB1 mAbs (G4 and S6) and isotype control were first biotinylated using EZ-Link Sulfo-NHS-LC-Biotin as instructed by the manufacturer (Pierce). After labeling, the mAb was tested for binding to HMGB1 by ELISA with unlabeled mAbs as controls. […]

- binding result [1]: binds
B1: anti-HMG1 antibody S6 (antibody, V domains shown)
VH: EVQLLESGGGLVQPGGSLRLSCAASGFTFSWYDMSWVRQAPGKGLEWVSRISPSGGYTMYADSVKGRFTISRDNSKNTLYLQMNSLRAEDTAVYYCARLEVGATSGGTAFDIWGQGTMVTVSS
VL: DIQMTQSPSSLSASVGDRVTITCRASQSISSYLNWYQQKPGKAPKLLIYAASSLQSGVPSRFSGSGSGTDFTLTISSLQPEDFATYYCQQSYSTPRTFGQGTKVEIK
notes: also called ATCC PTA-6143

- IC50, inhibition of native activated HMG1 stimulated IL-6 release from human PBMC [2]: 38.9 nM
- binding result [3]: binds
B2: anti-HMG1 antibody S16 (antibody, V domains shown)
VH: EVQLLESGGGLVQPGGSLRLSCAASGFTFSWYSMLWVRQAPGKGLEWVSYISPSGGFTNYADSVKGRFTISRDNSKNTLYLQMNSLRAEDTAVYYCARWDYNSGWYYDHWGQGTLVTVSS
VL: DIQMTQSPDTLSLSPGERATLSCRASQSVNSRNLAWYQQKPGQAPRLLIYGASTRATGIPDRFSGSVSGTEFTLTISSLQPDDFATYYCQQYNSYFTFGQGTKLEIK
notes: also called ATCC PTA-6259

B3: anti-HMG1 antibody G4 (antibody, V domains shown)
VH: EVQLLESGGGLVQPGGSLRLSCAASGFTFSWYDMTWVRQAPGKGLEWVSSISPSGGYTKYADSVKGRFTISRDNSKNTLYLQMNSLRAEDTAVYYCTTEFYDYLDVWGKGTTVTVSS
VL: DIQMTQSPGTLSLSPGEGATLSCRASQSVSSTYLAWYQQKPGQAPRLLIYEASKRATGTPARFSGSGSGTDFTLSISSLEPEDFAVYYCQHRHNWPPQWTFGQGTKVEVK
notes: also called ATCC PTA-6258
- binding result [4]: binds
